Laboratory results as given in patent US11504441B2, “Radiolabeled compounds targeting the prostate-specific membrane antigen” (PROVINCIAL HEALTH SERVICES AUTHORITY, priority 2019, dated 2022).

Tests used:
[1] = system: PSMA-expressing LNCaP cancer xenografts; details: mouse, in vivo
Procedure: (§1) LNCaP cell line was obtained from ATCC (LNCaP clone FGC, CRL-1740). […] Cells were cultured in PRM I 1640 medium supplemented with 10% FBS, penicillin (100 U/mL) and streptomycin (100 μg/mL) at 37° C. in a humidified incubator containing 5% CO2. Cells grown to 80-90% confluence were then washed with sterile phosphate-buffered saline (1× PBS pH 7.4) and collected by trypsinization. The collected cells concentration was counted with a Hausser Scientific (Horsham, Pa.) Hemacytometer.
(§2) Imaging and biodistribution experiments were performed using NODSCID 1 L2RγKO male mice. Mice were anesthetized by inhalation with 2% isoflurane in oxygen, and implanted subcutaneously with 1×10^7 LNCaP cells behind left shoulder. Mice were imaged or used in biodistribution studies when the tumor grew up to reach 5-8 mm in diameter during 5-6 weeks.
(§3) PET imaging experiments were conducted using Siemens Inveon micro PET/CT scanner. Each tumor bearing mouse was injected 6-8 MBq of Ga-68 labeled tracer through the tail vein under anesthesia (2% isoflurane in oxygen). The mice were allowed to recover and roam freely in their cage. After 50 min, the mice were sedated again with 2% isoflurane in oxygen inhalation and positioned in the scanner. A 10-min CT scan was conducted first for localization and attenuation correction after segmentation for reconstructing the PET images. Then, a 10-min static PET imaging was performed to determined uptake in tumor and other organs. The mice were kept warm by a heating pad during acquisition. For biodistribution studies, the mice were injected with the radiotracer as described above. The mice was anesthetized with 2% isoflurane inhalation, and euthanized by CO2 inhalation. Blood was withdrawn immediately from the heart, and the organs/tissues of interest were collected. The collected organs/tissues were weighed and counted using a Perkin Elmer (Waltham, Mass.) Wizard2 2480 gamma counter. The uptake in each organ/tissue was normalized to the injected dose using a standard curve, and expressed as the percentage of the injected dose per gram of tissue (% ID/g).
(§4) LNCaP cell line was obtained from ATCC (LNCaP clone FGC, CRL-1740). […] Cells were cultured in PRM I 1640 medium supplemented with 10% FBS, penicillin (100 U/mL) and streptomycin (100 μg/mL) at 37° C. in a humidified incubator containing 5% CO2. Cells grown to 80-90% confluence were then washed with sterile phosphate-buffered saline (1× PBS pH 7.4), and collected by trypsinization. The collected cell concentration was counted with a Hausser Scientific (Horsham, Pa.) Hemacytometer.
(§5) Imaging and biodistribution experiments were performed using NODSCID 1L2RγKO male mice. Mice were anesthetized by inhalation with 2% isoflurane in oxygen, and implanted subcutaneously with 1×10^7 LNCaP cells behind left shoulder. Mice were imaged or used in biodistribution studies when the tumor grew up to reach 5-8 mm in diameter during 5-6 weeks.
(§6) PET imaging experiments were conducted using Siemens Inveon micro PET/CT scanner. Each tumor bearing mouse was injected 6-8 MBq of Ga-68 or F-18 labeled tracer through the tail vein under anesthesia (2% isoflurane in oxygen). The mice were allowed to recover and roam freely in their cage. After 50 min, the mice were sedated again with 2% isoflurane in oxygen inhalation and positioned in the scanner. A 10-min CT scan was conducted first for localization and attenuation correction after segmentation for reconstructing the PET images. Then, a 10-min static PET imaging was performed to determined uptake in tumor and other organs.
(§7) For biodistribution studies, the mice were injected with the radiotracer as described above.

in vivo = details: male, NODSCID 1L2RγKO, mouse, iv, total radioactivity; for excreta dose per gram or mL at 1 h: Urine uptake
Procedure: as §1, §2, §3, §4, §5, §6, §7

SMILES | Blood: Salivary ratio [1] | Tumor: Blood ratio [1] | Tumor: Kidney ratio [1] | Tumor: Muscle ratio [1] | Tumor: Salivary ratio [1] | tissue uptake at 1 h (in vivo; Adrenal glands uptake) | tissue uptake at 1 h (in vivo; Blood uptake) | tissue uptake at 1 h (in vivo; Bone uptake) | tissue uptake at 1 h (in vivo; Brain uptake) | tissue uptake at 1 h (in vivo; Fat uptake) | tissue uptake at 1 h (in vivo; Heart uptake) | tissue uptake at 1 h (in vivo; Intestine uptake) | tissue uptake at 1 h (in vivo; Kidneys uptake) | tissue uptake at 1 h (in vivo; Lacrimal uptake) | tissue uptake at 1 h (in vivo; Liver uptake) | tissue uptake at 1 h (in vivo; Lungs uptake) | tissue uptake at 1 h (in vivo; Muscle uptake) | tissue uptake at 1 h (in vivo; Pancreas uptake) | tissue uptake at 1 h (in vivo; Salivary uptake) | tissue uptake at 1 h (in vivo; Seminal uptake) | other results
O=C(O)C[C@H](NC(=O)N[C@@H](CCCCNC(=O)[C@H](Cc1c2ccccc2cc2ccccc12)NC(=O)[C@H]1CC[C@H](CNC(=O)CN2CCN(CC(=O)O)CCN(CC(=O)O)CCN(CC(=O)O)CC2)CC1)C(=O)O)C(=O)O [68Ga-HTK03161, metal not drawn] | 5.08 ± 0.62 | 11.4 ± 1.73 | 3.03 ± 0.84 | 89.4 ± 36.1 | 57.2 ± 7.11 | 0.41 ± 0.07 %ID/g | 1.13 ± 0.19 %ID/g | 0.11 ± 0.02 %ID/g | 0.02 %ID/g | 0.15 ± 0.04 %ID/g | 0.32 ± 0.05 %ID/g | 0.31 ± 0.09 %ID/g | 4.41 ± 1.26 %ID/g | 0.12 ± 0.06 %ID/g | 0.28 ± 0.05 %ID/g | 0.75 ± 0.13 %ID/g | 0.15 ± 0.04 %ID/g | 0.18 ± 0.03 %ID/g | 0.23 ± 0.05 %ID/g | 6.22 ± 12.2 %ID/g | tissue uptake at 1 h (in vivo; Spleen uptake): 0.27 ± 0.06 %ID/g; tissue uptake at 1 h (in vivo; Stomach uptake): 0.1 ± 0.04 %ID/g; tissue uptake at 1 h (in vivo; Tail uptake): 0.55 ± 0.1 %ID/g; tissue uptake at 1 h (in vivo; Testes uptake): 0.54 ± 0.51 %ID/g; tissue uptake at 1 h (in vivo; Thyroid uptake): 0.29 ± 0.05 %ID/g; tissue uptake at 1 h (in vivo; Tumor uptake): 12.7 ± 1.91 %ID/g; excreta dose per gram or mL at 1 h (in vivo): 363 ± 155 %ID/g
O=C(O)CCC[C@H](NC(=O)N[C@@H](CCCCNC(=O)[C@H](Cc1ccc2ccccc2c1)NC(=O)[C@H]1CC[C@H](CNC(=O)CN2CCN(CC(=O)O)CCN(CC(=O)O)CCN(CC(=O)O)CC2)CC1)C(=O)O)C(=O)O [68Ga-HTK03169, metal not drawn] | 4.39 ± 2.06 | 6.09 ± 2.24 | 1.47 ± 0.16 | 47.1 ± 12.3 | 23.2 ± 1.91 | 0.24 ± 0.08 %ID/g | 0.63 ± 0.36 %ID/g | 0.08 ± 0.03 %ID/g | 0.02 ± 0.01 %ID/g | 0.09 ± 0.04 %ID/g | 0.14 ± 0.07 %ID/g | 0.23 ± 0.16 %ID/g | 2.18 ± 0.48 %ID/g | 0.13 ± 0.06 %ID/g | 0.21 ± 0.16 %ID/g | 0.38 ± 0.17 %ID/g | 0.08 ± 0.05 %ID/g | 0.11 ± 0.05 %ID/g | 0.14 ± 0.03 %ID/g | 3.83 ± 2.93 %ID/g | tissue uptake at 1 h (in vivo; Spleen uptake): 0.13 ± 0.06 %ID/g; tissue uptake at 1 h (in vivo; Stomach uptake): 0.09 ± 0.11 %ID/g; tissue uptake at 1 h (in vivo; Tail uptake): 0.48 ± 0.2 %ID/g; tissue uptake at 1 h (in vivo; Testes uptake): 0.13 ± 0.07 %ID/g; tissue uptake at 1 h (in vivo; Thyroid uptake): 0.16 ± 0.07 %ID/g; tissue uptake at 1 h (in vivo; Tumor uptake): 3.19 ± 0.7 %ID/g; excreta dose per gram or mL at 1 h (in vivo): 421 ± 187 %ID/g
O=C(O)CSC[C@H](NC(=O)N[C@@H](CCCCNC(=O)[C@H](Cc1c2ccccc2cc2ccccc12)NC(=O)[C@H]1CC[C@H](CNC(=O)CN2CCN(CC(=O)O)CCN(CC(=O)O)CCN(CC(=O)O)CC2)CC1)C(=O)O)C(=O)O [68Ga-HTK03177, metal not drawn] | 3.14 ± 0.19 | 36.1 ± 12.5 | 3.25 ± 1.16 | 220 ± 135 | 112 ± 33.1 | 0.46 ± 0.17 %ID/g | 0.7 ± 0.06 %ID/g | 0.1 ± 0.03 %ID/g | 0.02 %ID/g | 0.09 ± 0.04 %ID/g | 0.21 ± 0.01 %ID/g | 0.21 ± 0.02 %ID/g | 7.76 ± 1 %ID/g | 0.12 ± 0.06 %ID/g | 0.33 ± 0.2 %ID/g | 0.61 ± 0.08 %ID/g | 0.18 ± 0.18 %ID/g | 0.14 ± 0.01 %ID/g | 0.22 ± 0.02 %ID/g | 0.28 ± 0.38 %ID/g | tissue uptake at 1 h (in vivo; Spleen uptake): 0.42 ± 0.15 %ID/g; tissue uptake at 1 h (in vivo; Stomach uptake): 0.15 ± 0.09 %ID/g; tissue uptake at 1 h (in vivo; Tail uptake): 0.74 ± 0.12 %ID/g; tissue uptake at 1 h (in vivo; Testes uptake): 0.25 ± 0.07 %ID/g; tissue uptake at 1 h (in vivo; Thyroid uptake): 0.23 ± 0.01 %ID/g; tissue uptake at 1 h (in vivo; Tumor uptake): 24.7 ± 6.85 %ID/g; excreta dose per gram or mL at 1 h (in vivo): 400 ± 262 %ID/g
O=C(O)COC[C@H](NC(=O)N[C@@H](CCCCNC(=O)[C@H](Cc1c2ccccc2cc2ccccc12)NC(=O)[C@H]1CC[C@H](CNC(=O)CN2CCN(CC(=O)O)CCN(CC(=O)O)CCN(CC(=O)O)CC2)CC1)C(=O)O)C(=O)O [68Ga-HTK03187, metal not drawn] | 4.27 ± 0.74 | 32.2 ± 8.53 | 7.67 ± 2.10 | 249 ± 61.2 | 133 ± 14.0 | 0.26 ± 0.06 %ID/g | 0.67 ± 0.1 %ID/g | 0.13 ± 0.03 %ID/g | 0.02 %ID/g | 0.07 ± 0.02 %ID/g | 0.19 ± 0.04 %ID/g | 0.23 ± 0.05 %ID/g | 2.83 ± 0.45 %ID/g | 0.09 ± 0.03 %ID/g | 0.21 ± 0.05 %ID/g | 0.52 ± 0.09 %ID/g | 0.09 ± 0.01 %ID/g | 0.12 ± 0.02 %ID/g | 0.16 ± 0.02 %ID/g | 0.65 ± 0.8 %ID/g | tissue uptake at 1 h (in vivo; Spleen uptake): 0.17 ± 0.02 %ID/g; tissue uptake at 1 h (in vivo; Stomach uptake): 0.08 ± 0.05 %ID/g; tissue uptake at 1 h (in vivo; Tail uptake): 0.46 ± 0.1 %ID/g; tissue uptake at 1 h (in vivo; Testes uptake): 0.15 ± 0.03 %ID/g; tissue uptake at 1 h (in vivo; Thyroid uptake): 0.18 ± 0.02 %ID/g; tissue uptake at 1 h (in vivo; Tumor uptake): 21.1 ± 3.62 %ID/g; excreta dose per gram or mL at 1 h (in vivo): 444 ± 192 %ID/g
O=C(O)CN1CCN(CC(=O)O)CCN(CC(=O)NC[C@H]2CC[C@H](C(=O)N[C@@H](Cc3c4ccccc4cc4ccccc34)C(=O)NCCCC[C@H](NC(=O)N[C@@H](C[C@@H](F)C(=O)O)C(=O)O)C(=O)O)CC2)CCN(CC(=O)O)CC1 [68Ga-HTK04033, metal not drawn] | 4.38 ± 0.57 | 31.7 ± 5.00 | 5.64 ± 1.37 | 221 ± 53.4 | 138 ± 21.1 | 0.16 ± 0.03 %ID/g | 0.59 ± 0.12 %ID/g | 0.08 ± 0.01 %ID/g | 0.02 %ID/g | 0.1 ± 0.03 %ID/g | 0.18 ± 0.06 %ID/g | 0.2 ± 0.04 %ID/g | 3.31 ± 0.34 %ID/g | 0.04 ± 0.03 %ID/g | 0.29 ± 0.09 %ID/g | 0.5 ± 0.05 %ID/g | 0.09 ± 0.04 %ID/g | 0.15 ± 0.08 %ID/g | 0.13 ± 0.02 %ID/g | 0.1 ± 0.04 %ID/g | tissue uptake at 1 h (in vivo; Spleen uptake): 0.19 ± 0.03 %ID/g; tissue uptake at 1 h (in vivo; Stomach uptake): 0.07 ± 0.03 %ID/g; tissue uptake at 1 h (in vivo; Tail uptake): 0.66 ± 0.5 %ID/g; tissue uptake at 1 h (in vivo; Testes uptake): 0.17 ± 0.05 %ID/g; tissue uptake at 1 h (in vivo; Thyroid uptake): 0.18 ± 0.03 %ID/g; tissue uptake at 1 h (in vivo; Tumor uptake): 18.5 ± 4.05 %ID/g; excreta dose per gram or mL at 1 h (in vivo): 440 ± 211 %ID/g
O=C(O)CCC[C@H](NC(=O)N[C@@H](CCCCNC(=O)[C@H](Cc1c2ccccc2cc2ccccc12)NC(=O)Cc1ccc(CNC(=O)CN2CCN(CC(=O)O)CCN(CC(=O)O)CCN(CC(=O)O)CC2)cc1)C(=O)O)C(=O)O [68Ga-HTK04036, metal not drawn] | 3.68 ± 0.41 | 21.0 ± 8.58 | 3.02 ± 1.44 | 139 ± 62.4 | 75.1 ± 28.2 | 0.3 ± 0.16 %ID/g | 0.69 ± 0.35 %ID/g | 0.1 ± 0.03 %ID/g | 0.02 ± 0.01 %ID/g | 0.09 ± 0.05 %ID/g | 0.22 ± 0.12 %ID/g | 0.41 ± 0.23 %ID/g | 5.82 ± 5 %ID/g | 0.06 ± 0.03 %ID/g | 0.48 ± 0.67 %ID/g | 0.55 ± 0.26 %ID/g | 0.11 ± 0.06 %ID/g | 0.13 ± 0.07 %ID/g | 0.18 ± 0.08 %ID/g | 2.08 ± 3.09 %ID/g | tissue uptake at 1 h (in vivo; Spleen uptake): 0.27 ± 0.13 %ID/g; tissue uptake at 1 h (in vivo; Stomach uptake): 0.12 ± 0.11 %ID/g; tissue uptake at 1 h (in vivo; Tail uptake): 0.42 ± 0.18 %ID/g; tissue uptake at 1 h (in vivo; Testes uptake): 0.25 ± 0.14 %ID/g; tissue uptake at 1 h (in vivo; Thyroid uptake): 0.22 ± 0.12 %ID/g; tissue uptake at 1 h (in vivo; Tumor uptake): 12.1 ± 2.15 %ID/g; excreta dose per gram or mL at 1 h (in vivo): 422 ± 163 %ID/g
O=C(O)CCC[C@H](NC(=O)N[C@@H](CCCCNC(=O)[C@H](Cc1c2ccccc2cc2ccccc12)NC(=O)Cc1cccc(CNC(=O)CN2CCN(CC(=O)O)CCN(CC(=O)O)CCN(CC(=O)O)CC2)c1)C(=O)O)C(=O)O [68Ga-HTK04037, metal not drawn] | 3.55 ± 0.46 | 26.3 ± 10.5 | 3.02 ± 1.22 | 165 ± 52.9 | 92.2 ± 34.5 | 0.19 ± 0.03 %ID/g | 0.51 ± 0.12 %ID/g | 0.07 ± 0.01 %ID/g | 0.02 %ID/g | 0.06 ± 0.01 %ID/g | 0.15 ± 0.03 %ID/g | 0.28 ± 0.03 %ID/g | 4.47 ± 0.9 %ID/g | 0.07 ± 0.04 %ID/g | 0.2 ± 0.03 %ID/g | 0.46 ± 0.09 %ID/g | 0.08 ± 0.03 %ID/g | 0.11 ± 0.01 %ID/g | 0.14 ± 0.03 %ID/g | 8.45 ± 10 %ID/g | tissue uptake at 1 h (in vivo; Spleen uptake): 0.24 ± 0.05 %ID/g; tissue uptake at 1 h (in vivo; Stomach uptake): 0.12 ± 0.05 %ID/g; tissue uptake at 1 h (in vivo; Tail uptake): 0.41 ± 0.16 %ID/g; tissue uptake at 1 h (in vivo; Testes uptake): 0.18 ± 0.04 %ID/g; tissue uptake at 1 h (in vivo; Thyroid uptake): 0.16 ± 0.03 %ID/g; tissue uptake at 1 h (in vivo; Tumor uptake): 13.1 ± 4.69 %ID/g; excreta dose per gram or mL at 1 h (in vivo): 396 ± 114 %ID/g
